Target: human HER2 (ErbB2) (human) (UniProt P04626)
Assay: cell-based or functional assay

## murine monoclonal antibody 4D5 (ATCC CRL 10463)
  maximum inhibition of cell proliferation in SK-BR-3 cells: 66%
